Test results from article PMC6212398, “Competing protein-protein interactions regulate binding of Hsp27 to its client protein tau” (Nature Communications, 2018).

Assays:
Hsp27 ΔNTD GPG (human) = Hsp27 ΔNTD GPG (human) (UniProt P04792); assay: not stated; oligomeric state of Hsp27 GPG, ΔNTD and ΔNTD GPG (Supplementary Figure 8B, 8C); method not given
[1] = biological target: Hsp27 alpha-crystallin domain (ACD, residues Q80–S176) (human) (UniProt P04792); assay: ITC; K18 tau with Hsp27 ACD (Supplementary Figure 3B); limited by solubility
Sequence of Hsp27 alpha-crystallin domain (ACD, residues Q80–S176) (human) (P04792 80-176): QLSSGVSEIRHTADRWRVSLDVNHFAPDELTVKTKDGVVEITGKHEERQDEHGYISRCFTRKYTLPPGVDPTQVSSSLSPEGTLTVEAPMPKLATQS

[2] = biological target: Hsp27 alpha-crystallin domain (ACD, residues Q80–S176) (human) (UniProt P04792); assay: ELISA; competitive ELISA of K18 tau on Hsp27 ACD (Supplementary Figure 3A); format not told

stoichiometry N (Hsp27 ΔNTD GPG (human))	Kd [1]	IC50 [2]	Substance
2			Hsp27 ΔNTD GPG (from UniProt P04792 80-205) (domain or fragment)
	> 100 µM	> 100 µM	K18 tau (the four microtubule-binding repeats) (domain or fragment)
